Source: US20180207228A1, “PEPTIDE COMBINATIONS AND USES THEREOF FOR TREATING GRASS ALLERGY” (ALK-Abelló A/S, priority 2015, published 2018)
Where no end group is shown, it is not given here.

B1: peptide 226 (Phl p 4, 195) (peptide)
peptide: SMGDDHFWAVRGGGGESFGI
B2: peptide 201 (Phl p 1, 18) (peptide)
peptide: WLDAKSTWYGKPTGAGPKDN
B3: peptide 225 (Phl p 4, 163) (peptide)
peptide: GFGMLLRKYGIAAENVIDVK
B4: peptide 222 (Phl p 4, 8) (peptide)
peptide: KEDFLGSLVKEIPPRLLYAK
B5: peptide 212 (Phl p 1, 211) (peptide)
peptide: VRYTTEGGTKTEAEDVIPEG
B6: peptide 228 (Phl p 5, 1) (peptide)
peptide: AGYTPAAPAGAEPAGKATTE
B7: peptide 219 (Phl p 3, 47) (peptide)
peptide: TKKGNVWEVKSSKPLVGPFN
B8: peptide 227 (Phl p 4, 386) (peptide)
peptide: TPFPHRKGVLFNIQYVNYWF
B9: peptide 217 (Phl p 3, 11) (peptide)
peptide: GSDPKKLVLNIKYTRPGDSL
B10: peptide 214 (Phl p 2, 40) (peptide)
peptide: EWVAMTKGEGGVWTFDSEEP
B11: peptide 210 (Phl p 1, 183) (peptide)
peptide: KDKWIELKESWGAIWRIDTP
B12: peptide 224 (Phl p 4, 101) (peptide)
peptide: FAVVDLNKMRAVWVDGKART
B13: peptide 216 (Phl p 2, 58) (peptide)
peptide: EPLQGPFNFRFLTEKGMKNV
B14: peptide 211 (Phl p 1, 193) (peptide)
peptide: WGAIWRIDTPDKLTGPFTVR
B15: peptide 213 (Phl p 1, 221) (peptide)
peptide: TEAEDVIPEGWKADTSYESK
B16: peptide 218 (Phl p 3, 38) (peptide)
peptide: HGSEEWEPLTKKGNVWEVKS
B17: peptide 202 (Phl p 1, 66) (peptide)
peptide: GRGSGSSFEIKSTKPEASSG
B18: peptide 220 (Phl p 3, 56) (peptide)
peptide: KSSKPLVGPFNFRFMSKGGM
B19: peptide 223 (Phl p 4, 55) (peptide)
peptide: YIITPTNVSHIQSAVVSGRR

Target: 25 HLA Class II alleles (purified class II MHC molecules)
Assay: competitive radiolabelled-peptide binding to purified HLA class II (25 alleles, binder if IC50 <300 nM); worldwide phenotypic coverage of the alleles found to bind
Settings: not given

Row | Molecule | Measured binding coverage 25 alleles [%]
1 | B1 | 57
2 | B2 | 47
3 | B3 | 98
4 | B4 | 100
5 | B5 | 40
6 | B6 | 69
7 | B7 | 91
8 | B8 | 97
9 | B9 | 98
10 | B10 | 81
11 | B11 | 92
12 | B12 | 99
13 | B13 | 92
14 | B14 | 90
15 | B15 | 58
16 | B16 | 39
17 | B17 | 84
18 | B18 | 96
19 | B19 | 99

System: release of IL-5 upon T cell activation
Assay: Fluorospot assay, IL-5 release (DK1-TCL01, US1-TCL01)
Format: cell-based, human
Settings: head prints TCL-02 DK1; text: 25 TCL-01 DK1 lines
How it was run: (§1)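 A peptide counted as a hit at ≥20 SFC/10^6 cells, stimulation index ≥2 over medium, and p and Poisson ≤0.05. Cells came from TCL01 lines, raised from allergic donors' CD8-depleted PBMCs over 14 days of natural-allergen stimulation with IL-2. They were exposed to 2 μg/ml peptide or peptide mix for 20 h at 37° C.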

Row | Molecule | IL-5-Fluorospotr % donor coverage (TCL-02 DK1) [%]
20 | RGAAPDDHGGASGYKDVDKP-OH [compound 92] | 0.00
21 | RIIAGTLEVHAVKPAAEEVK-OH [compound 80] | 0.00
22 | RNEVVNDVSTYASGKVWGQK-OH [compound 57] | 4.00
23 | RNVFDEVIPTAFKIGKTYTP-OH [compound 44] | 0.00

System: release of IFN-γ upon T cell activation
Assay: Fluorospot assay, IFN-γ release (DK1-TCL01, US1-TCL01)
Format: cell-based, human
Settings: head prints TCL-02 DK1; 17 TCL-01 DK1 lines
How it was run: as §1

Row | Molecule | IFN-gamma % donor coverage (TCL-02 DK1) [%]
24 | RGAAPDDHGGASGYKDVDKP-OH [compound 92] | 0.00
25 | RIIAGTLEVHAVKPAAEEVK-OH [compound 80] | 0.00
26 | RNEVVNDVSTYASGKVWGQK-OH [compound 57] | 4.00
27 | RNVFDEVIPTAFKIGKTYTP-OH [compound 44] | 0.00

System: allergen specific T cells
Assay: T cell proliferation assay (72 h) on donor derived T cell lines (TCL02/TCL03)
Format: cell-based, human
Settings: T cell lines TCL-02 DK1, 30 donors; hit criteria SI>=2, CPM>=1000
How it was run: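 Overlapping 20-mer and selected 15-mer grass allergen peptides were screened for proliferation using TCL02 (day 24) or TCL03 (day 34) lines. Lines came from grass-allergic donors' CD8-depleted PBMCs, primed with natural allergen mix and expanded with irradiated autologous or allogeneic APCs, PHA-P 0.5 μg/ml and rIL-2.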

Row | Molecule | Proliferation % donor coverage (TCL-02 DK1) [%]
28 | RGAAPDDHGGASGYKDVDKP-OH [compound 92] | 3.33
29 | RIIAGTLEVHAVKPAAEEVK-OH [compound 80] | 30.00
30 | RNEVVNDVSTYASGKVWGQK-OH [compound 57] | 16.67
31 | RNVFDEVIPTAFKIGKTYTP-OH [compound 44] | 20.00

Same assay, conditions: T cell lines TCL-02 DK1; strength of response (average relative magnitude)

Row | Molecule | Proliferation strength (TCL-02 DK1)
32 | RGAAPDDHGGASGYKDVDKP-OH [compound 92] | 0.60
33 | RIIAGTLEVHAVKPAAEEVK-OH [compound 80] | 4.40
34 | RNEVVNDVSTYASGKVWGQK-OH [compound 57] | 2.00
35 | RNVFDEVIPTAFKIGKTYTP-OH [compound 44] | 1.40
